The source of these data is the Human Domainome abundance scans (Beltran et al. 2025).

B1: 3'-5' exoribonuclease 1, residues 65 to 114; numbered along this chain, Q8IV48 (parent)
chain: VYKEIAITNGCINRMSKEELRAKLSEFKLETRGVKDVLKKRLKNYYKKQK

± gives the uncertainty stated by the source.

This series covers variants of B1. Put plainly: abundance fitness (aPCA) (normalised: wild type 0, dead -1); higher = more abundant; growth selection in yeast, the domain comes from the species named. Particulars: Homo sapiens.
Consider VYKEIAITNGCINRMSKEELRAKLSEFMLETRGVKDVLKKRLKNYYKKQK, for which the abundance fitness was -0.194 ± 0.055.
For VYKEIAITNGCINRMSKEELRAKLSEFQLETRGVKDVLKKRLKNYYKKQK the value was -0.124 ± 0.068; for VYKEIAITNGCINRMSKEELDAKLSEFKLETRGVKDVLKKRLKNYYKKQK, -0.844 ± 0.073; for VYKEIAITNGCINRMSKEELTAKLSEFKLETRGVKDVLKKRLKNYYKKQK, -0.473 ± 0.051.
Regarding RYKEIAITNGCINRMSKEELRAKLSEFKLETRGVKDVLKKRLKNYYKKQK, the abundance fitness was -0.37 ± 0.093.
Take LYKEIAITNGCINRMSKEELRAKLSEFKLETRGVKDVLKKRLKNYYKKQK: the abundance fitness was -0.047 ± 0.061.
For the variant IYKEIAITNGCINRMSKEELRAKLSEFKLETRGVKDVLKKRLKNYYKKQK, the abundance fitness was -0.025 ± 0.034.
On to VYKEIAITNGCINRMSKEELRAKLSEFKLETRGVKDVLKKRLKNYYKKMK, for which the abundance fitness is -0.04 ± 0.068.
Take VYKCIAITNGCINRMSKEELRAKLSEFKLETRGVKDVLKKRLKNYYKKQK: the abundance fitness was -0.161 ± 0.05.
Turning to VYKEIAITNGCINRMSKEEFRAKLSEFKLETRGVKDVLKKRLKNYYKKQK, the abundance fitness is -0.512 ± 0.059.
Consider VYKEIAITNGCINRMSKEELRAKLSEFKLETRGVKDGLKKRLKNYYKKQK, for which the abundance fitness is -0.639 ± 0.08.
For VYKEIAITNGCINRMSKEELRAKLSEFKLETRGVKDVLKKRLKNYYNKQK the value was -0.155 ± 0.063; for VYKEIAITNGCINRMSKEELRAKLSEFKLETRGVKDVLKKRLKNYYVKQK, -0.422 ± 0.04; for VYKEIAITNGCINRMSKEELRAKLLEFKLETRGVKDVLKKRLKNYYKKQK, -0.083 ± 0.04.
VYKEIAITNGCINRMSKEELRAKLPEFKLETRGVKDVLKKRLKNYYKKQK: the abundance fitness is -0.323 ± 0.059.
For VYKEIAITNGCINRMSKEELRAKLTEFKLETRGVKDVLKKRLKNYYKKQK the value was -0.126 ± 0.048; for VYKEIAITNGCINRMSKEELRAKLYEFKLETRGVKDVLKKRLKNYYKKQK, -0.105 ± 0.05.
For VYKEIAITNGCINRMSKEELRAKLVEFKLETRGVKDVLKKRLKNYYKKQK the value was -0.205 ± 0.04; for VYKEIAITNGCINRMSKEELRAKLSEFKLETRGVKDVLCKRLKNYYKKQK, -0.396 ± 0.067; for VYKEIAITNGCINRMSKEELRAKLSEFKLETRGVKDVLTKRLKNYYKKQK, -0.458 ± 0.055.
For VYKEIAITNGCINRMSKEELRAKLSEFKLETRGVKDVLIKRLKNYYKKQK the value was -0.382 ± 0.055; for VYKEIAITNGCINRMSKEELRAKLSEFKLETRGVKDVLLKRLKNYYKKQK, -0.632 ± 0.051; for VYKEIAITNFCINRMSKEELRAKLSEFKLETRGVKDVLKKRLKNYYKKQK, -0.323 ± 0.043.
With VYKEIAITNYCINRMSKEELRAKLSEFKLETRGVKDVLKKRLKNYYKKQK, the abundance fitness is -0.238 ± 0.048.
For VYKEIAITNGCINRMSKEELRAKLSEAKLETRGVKDVLKKRLKNYYKKQK the value was -0.065 ± 0.046.
For VYKEIAITNGCINRMSKEELRAKLSEFKLETRGVKDVLKKRLHNYYKKQK the value was -0.729 ± 0.072; for VYKEIAPTNGCINRMSKEELRAKLSEFKLETRGVKDVLKKRLKNYYKKQK, -0.067 ± 0.041.
Consider VYKEIAITNGCINRWSKEELRAKLSEFKLETRGVKDVLKKRLKNYYKKQK, for which the abundance fitness was -0.83 ± 0.12.
For VYKEIAITNGCINRTSKEELRAKLSEFKLETRGVKDVLKKRLKNYYKKQK the value was -0.414 ± 0.057; for VYKEIAITNGCINRMSKFELRAKLSEFKLETRGVKDVLKKRLKNYYKKQK, -0.007 ± 0.063; for VYKEIAITNGCINRMSKNELRAKLSEFKLETRGVKDVLKKRLKNYYKKQK, 0.047 ± 0.06.
As for VYKELAITNGCINRMSKEELRAKLSEFKLETRGVKDVLKKRLKNYYKKQK, the abundance fitness was -0.051 ± 0.038.
Consider VYKEKAITNGCINRMSKEELRAKLSEFKLETRGVKDVLKKRLKNYYKKQK, for which the abundance fitness is -0.042 ± 0.056.
For VGKEIAITNGCINRMSKEELRAKLSEFKLETRGVKDVLKKRLKNYYKKQK the value was 0.069 ± 0.047; for VAKEIAITNGCINRMSKEELRAKLSEFKLETRGVKDVLKKRLKNYYKKQK, 0.006 ± 0.052.
In the case of VPKEIAITNGCINRMSKEELRAKLSEFKLETRGVKDVLKKRLKNYYKKQK, the abundance fitness turned out to be 0.046 ± 0.061.
With VSKEIAITNGCINRMSKEELRAKLSEFKLETRGVKDVLKKRLKNYYKKQK, the abundance fitness stood at 0.028 ± 0.044.
For VYKEIAITNGCINRMSKEELRAKTSEFKLETRGVKDVLKKRLKNYYKKQK the value was -0.832 ± 0.084.
In the case of VYKEIAITNGCINRMSKEELRAKLSEFKLETRMVKDVLKKRLKNYYKKQK, the abundance fitness is -0.988 ± 0.082.
With VYKEIAITNGCINRMSKEELRAKLSEFKLETRYVKDVLKKRLKNYYKKQK, the abundance fitness is -0.931 ± 0.053.
For VYKEIAITNGCINRMSKEELRAKLSEFKLETRTVKDVLKKRLKNYYKKQK the value was -1.06 ± 0.058; for VYKEIAITNGCINRMSKEELRAKLSEFKLETRGVKYVLKKRLKNYYKKQK, -0.176 ± 0.034; for VYKEIAITNGCINRMSKEELRAKLSEFKLETRGVKQVLKKRLKNYYKKQK, -0.236 ± 0.047.
For VYKEIAITNGCINRMSKEELRAKLSEFKLETRGVKIVLKKRLKNYYKKQK the value was -0.334 ± 0.037; for VYKEIAITNGCINRMSKEELRAKLSEFKLETRGVKGVLKKRLKNYYKKQK, -0.244 ± 0.035.
Turning to VYKEIAITNGCINRMSKEELRAKLSLFKLETRGVKDVLKKRLKNYYKKQK, the abundance fitness was -0.22 ± 0.053.
For VYKEIAITNGCINRMSKEELRAKLSRFKLETRGVKDVLKKRLKNYYKKQK the value was -0.472 ± 0.046.
For the variant VYKEIAITNGCINRMSKEELRAKLSCFKLETRGVKDVLKKRLKNYYKKQK, the abundance fitness was -0.31 ± 0.051.
For VYKEIAITNGCINRMSKEELRAKLSMFKLETRGVKDVLKKRLKNYYKKQK, the abundance fitness was -0.267 ± 0.069.
For VYKEIAITNGCINRMSKEELRAKLSPFKLETRGVKDVLKKRLKNYYKKQK the value was -0.964 ± 0.099; for VYLEIAITNGCINRMSKEELRAKLSEFKLETRGVKDVLKKRLKNYYKKQK, -0.331 ± 0.042; for VYWEIAITNGCINRMSKEELRAKLSEFKLETRGVKDVLKKRLKNYYKKQK, -0.509 ± 0.052.
